Results reported in doi:10.1101/2020.09.13.295345 (bioRxiv, 2020).

Biological target: the molecule itself
Experiment: native gel or EMSA

B1: ΔNClpB, Thermus thermophilus ClpB lacking the N-terminal domain (domain or fragment)
chain: not shown
B1: binds.

B2: Thermus thermophilus ClpB, full-length (natural protein)
chain: not shown
B2: binds.
